Assay results reported in the supplement of paper PMC12636428.

tested on: Saccharomyces cerevisiae; assay: transcriptional activation domain activity (GFP:mCherry ratio, weighted mean of sorted bins, harmonized to initial dataset scale) (arbitrary fluorescence ratio units); higher = stronger transcriptional activation; settings: beta-estradiol 1 µM; induction time 4 h
Protocol: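 53-aa protein tiles (fungal proteins plus yeast TF control tiles) fused C-terminally to a DBD-estrogen-binding domain-mCherry synthetic TF, integrated in S. cerevisiae (URA3 locus) with a GFP reporter. Cells were induced with 1 uM beta-estradiol for 4 h at 30 C, FACS-sorted into 8 bins by GFP:mCherry ratio and barcodes sequenced. Activity is the read-weighted mean bin fluorescence (GFP:mCherry), averaged over barcodes (median 12); tiles under 50 reads were discarded. New active-learning values were harmonized by linear fit onto the scale of the initial (Hummel et al.) dataset. The assay saturates at low and high signal.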

Going from “DFLLSLHGIRTVYLFMFVINSFLHPLRTLIHLWCLIFISVYQHRLFFFFFFFF” to “DFTLEQDPDVLDTWFSSGLWPFSILGWPDKTPDLKTFYPATILETGWDILFFW”, the “transcriptional activation domain activity” value falls from 61200 to 54800.

First: DFWDYLIVSLVPSLCVFFVRYFMFMVLFIVVGYFIPLLMCYMSYSIIRYPLFH
Second: DFWFFLFVYYGFYNLVGLLWITKVFNMYGLNWWPVRLGFPATFTLFNCLSLAC
The “transcriptional activation domain activity” value of the first is lower: 43400 for the first, 65500 for the second.

First: DGAGAKDDEEDAGRMRTRGNGKRKGKGRAQDEAEAEAERVRAAEAFARRGAAK
Second: DGCIFFALITFALMLRIATAFCMRGPIHAIFLPWSIVCYYYAGSHLLLNLRWY
The “transcriptional activation domain activity” value of the first is lower: 43300 for the first, 46300 for the second.

First: DGDEEDAKDGRKKKKKKRLPKSPIGNPGEKLGFVILGAQHAREWVATSAALYL
Second: DGDLDEAVYKGFEYKHLGNLAYIGNAAVFDLNGWSIGGGLIFVYLWRSVYFAQ
The “transcriptional activation domain activity” value of the first is lower: 35700 for the first, 67800 for the second.

Going from “DGEATATPAKPKTPRKRKVKAADSAEEGTGDAEGSPKKKAGGRKKKADVAVKE” to “DGEGEDAEDGSKKDAEVAYHSGLGLKFRYPGDPKKLREASKLKLWTAYLKDHG”, the “transcriptional activation domain activity” value rises from 38600 to 55100.

First: DGGDGDDGSGGEVERAGKSGRAKREGKRGAEEEEEERGDGRAARKTAEKRKKR
Second: DGGEAGEGGTEGAGGGAGGEEGQQGKRPEEGKRKERHRPAEEHGKEKNHGRGE
The “transcriptional activation domain activity” value of the first is lower: less than 6570 for the first, 30700 for the second.

First: DGGGRDSEKRGKGKLITRKSHRKSRLGCGNCKQRRIKCDEKRPHCTNCQKRDI
Second: DGHFGSDFGWVWPFSFSLFCFLFCILHFLVYCTHNVLLWKQLSLNFLFCIFHG
The “transcriptional activation domain activity” value of the first is lower: 37600 for the first, 54100 for the second.

Going from “DGKTFDQLLRLKRLLVMHKGNLQSMWCVALMLELWHTKWTELSRLIQQHWGTG” to “DGKTRRSKVRPRRGAPTGAAGSPAAAGSSKSDTEANSDKGAAGKKRKPRPARK”, the “transcriptional activation domain activity” value falls from 74200 to 37100.

First: DGKWCLRFVPRGQRWLLAITRDFTDTAMMSVAARMVWHPIAYTVCLLPVTIAR
Second: DGNAGQTAGNAGNGRQNGNGRQGGNGGAGQQGKPRPNGQKGQQGQRGQGAGAG
The “transcriptional activation domain activity” value of the first is higher: 55000 for the first, 20500 for the second.

Compared with “DGNNSKPLSPGWTDQTAYNAFGITTGMFNTTTMDDVYNYLFDDEDTPPNPKKE”, “DGSIMEINGIPLSMLGETGSVKFQSLFANTSNSNDYNNNRTLLDASNDISIPS” is higher in “transcriptional activation domain activity” value: 61500 for the first, 61900 for the second.

Going from “DGSNGIAQLFGVVFFLFFFLHIYYICWALGLVGFVSGRRGNIVWFVLLCLFLS” to “DGVKGWAVGVVVAGPFMAGLIKLIRWAGDSFVAYVVVFLFVFQLVAMTLYPTL”, the “transcriptional activation domain activity” value falls from 63800 to 19000.

Going from “DGVTNTPVELGVAKEGGNLEVVNSRTALVVSKHWILLIGLLGRYGMRKDKGVL” to “DGWGDGGLRAGALEEVQRRAEEMRGRLRLDEEARLYFSRSGNRLVRVVIILVG”, the “transcriptional activation domain activity” value falls from 49400 to 7180.

First: DGYRNDNRGRNRRGNGRSRSPRGGKDSRNGTPPLTEDERDKRTIFVQQLAARL
Second: DHFDAPEPWSMFWYDPALDGTWWDQLPLDHFFPSELGAWASARSSWTDLTGSY
The “transcriptional activation domain activity” value of the first is lower: 57100 for the first, 155000 for the second.

First: DHLLKSLYMLIHTTLKCIKNLEFLGFYLFNSGFSSVFDECVFPYIRTLRCHQP
Second: DHSDKIDKKRKDEDDSKRSKSDRKSKRDEERFSDSDKGARLDKDHSKSSRSKS
The “transcriptional activation domain activity” value of the first is higher: 65000 for the first, 43500 for the second.

First: DIDEQRLQLYGVQIQIFLFVVMLYIFGCNLVIASKMVVLQPRNMVSWCCLIPS
Second: DIDMEDVDGDAAPSAKKAKASKKRKKDAESDGEQEKACLSFRTILLHSLIFIQ
The “transcriptional activation domain activity” value of the first is higher: 46800 for the first, 41900 for the second.

Compared with “DIEQQVRFRLTQIYFLILKLDAFFHFVLCVFYAVVMTQEKYYTLWGVIDRKFI”, “DIETLLVYDYYPKPLLDIDLTIRGRHIYLPIEKTWLRYVPKPPWYLLVLLFAG” is lower in “transcriptional activation domain activity” value: 79400 for the first, 60500 for the second.

Going from “DIFGQMKDFTERCHMYLDGNITLPISLHQKLVEIFSHLLCLIGMITRDMKRGW” to “DIIPDHYKHKPISLYDPRKAPLLNQYRLIVPRSRNIIEVCQFIILLLLYCLSM”, the “transcriptional activation domain activity” value rises from 32500 to 78100.

Compared with “DINSFTNQQQQAQDNPSFLPLDIEQSSYDLSEDAMSYPIISTQSNRDCTQYDN”, “DIPGLAPTYLDNQAFLMADTVDIPGDYNLFFDNFDISNFFLPATVYDSELPVS” is higher in “transcriptional activation domain activity” value: 68700 for the first, 137000 for the second.

Going from “DISKLAIETFYFFFLFLLSFLFSFLFFSFLFLIFFNFLYSSFFLSFFLSFFLF” to “DKATMRRAFFERIVTERINIMGKMSISLIHSLIVDCMFLSTARSFLWLLWAYV”, the “transcriptional activation domain activity” value rises from 33900 to 56300.

First: DKDEDAGAVEGEGGVVNANGKKTSGDEAGGERKKKQKQKEREKGGEDGAGKKG
Second: DKEAKADVEEKPKTPRGRKRKTAEEVNGEEAQTEKEPPVKKTKPASKAKPASK
The “transcriptional activation domain activity” value of the first is higher: 47700 for the first, 42600 for the second.

Going from “DKEKMEDGLIRVRLYFFTKLAGKPFYPTLLWSCLHSLTLKRLVALLRKSQLSA” to “DKKEAKPVNGESSKDTKPSGKEKEKELKDNAKPKEAKKGEGNKGGLAKAAAAP”, the “transcriptional activation domain activity” value falls from 68900 to 25800.

First: DKKNVDINEFLLDESVSNLFTTRQIDLFKKNVNLYSPLFQNQKDAVSSTSLTP
Second: DKNYNNLTVYNFVYLFGGRVHLYKNLTFHVVVTYVCVISSIVFFLVFIAKWYW
The “transcriptional activation domain activity” value of the first is higher: 81800 for the first, 52100 for the second.

Compared with “DKPIAAKKPSAQRKRKVKLESDADSSGDDQPIVKKPAAKKPRASKAKKEEPAS”, “DKPKTKPAAAKAKPKSATTKAKPASKASAKPSSKAGAKKPASKKATAAAAAKK” is lower in “transcriptional activation domain activity” value: 23100 for the first, 12000 for the second.

Going from “DKQLDYEFIDKSGIIPSDNQSHPRISNIHDNAIDMVTLKNGEEVAISWYDISH” to “DKRLENAQTLIPDGMKVRPMEDCITEAPTLIMARFNIVLLYLKTRVVLHRNYL”, the “transcriptional activation domain activity” value rises from 59800 to 62400.

First: DKSSGEEGSRKKRKRVSDNGEEDKELEKSKSKDRKKKGKRRDPAEDGAERPAT
Second: DLAPVQPVQKQARRRSGPACEGCKARKTKCDGKRPTCGSCVDKRHCVYADASV
The “transcriptional activation domain activity” value of the first is higher: 41400 for the first, 21900 for the second.

Going from “DLARSQKFILCSIKHWGSYLFLFFSCRSFNLFFNHSYFSFCLNISFFLCSVFL” to “DLASPSDNDIDEARSREIAAKAVTGILVLLLKWLKLSHILKFEYLTQLLLDSN”, the “transcriptional activation domain activity” value falls from 77800 to 64400.

Going from “DLCFWLLDVCVLFSPGSCRLHQLSDKYFVEQLVLMNVFLIQVLLKFVFPLGRA” to “DLDFRGIFMTDWYANYDYMVSDLIMPGFWRVPVLPKWYNWTGFFASWPLIGQF”, the “transcriptional activation domain activity” value falls from 74800 to 68800.

Going from “DLDILLAKLLEELEDSLQALKRLVVSAFLRFLTGVLYEEFMEAIRPNPHMDNE” to “DLDNDIDFETAYQMLSSNFDDQMSAHIHENTFSATSPPLLTHELGIIPNVATV”, the “transcriptional activation domain activity” value rises from 58200 to 95500.

Going from “DLEELRHLCHALKATFTHVLSIPVCSYFYFPQTSFAMILHSIMIICRWVKLST” to “DLFMTLGWISGFMAELIAVQGACSLGWHPGCTNFNWLMAWLFFLFLSWGAGFF”, the “transcriptional activation domain activity” value rises from 35100 to 66400.

Going from “DLFVSLMANSLTKLGFVPGATVDMKKLTIDIVELIFRWERRRMTGSPSIKPAD” to “DLHLICNMVNGSTTFHSGESWTPVCLPRFNSKGFLHAYVCFVAKETCLVLISP”, the “transcriptional activation domain activity” value falls from 45200 to 30300.

First: DLIQTKQLQNALLTHPRRNTLTGLQFTMQNVLDLLKYILTMILYRPSQFRWAA
Second: DLLAHCKRELVHAIWTLLLDDVFLHAYKYGMVVRCADGVEQRIYPRIFTYSAD
The “transcriptional activation domain activity” value of the first is higher: 82500 for the first, 41200 for the second.

Going from “DLLDQMILGLLRYCEADILVPKLRLLGATDRARMELLDAYSCKVWLLLLMFVT” to “DLLEDDGQPSSATQKSMKRANRKRQSQKNRIVHLLNRTRRALGVSRAALILLL”, the “transcriptional activation domain activity” value rises from 56500 to 57500.

First: DLLFNVAAFVFVGAWTPFNQFSDPALSLSVWRLIVIAILVLLLRRLPAIIALY
Second: DLLLEGYDTNRLLVVIPFTCKVLEQAAKSMVFKPPNPWLMAIVKLLAELYLYA
The “transcriptional activation domain activity” value of the first is lower: 27800 for the first, 73900 for the second.

Compared with “DLLVLLRKCREVALRIIQKESCFNVLNLRRELVSNLLLSFWVVGQSLTTKVPM”, “DLMMVVFGVLLSSLFFVFVFVWYCYLLLSCFLSFFLSLVVSWCWLGLHIHVYS” is higher in “transcriptional activation domain activity” value: 33000 for the first, 43500 for the second.

Compared with “DLPVRLVELPNLLVTDIQQNAYLLDSALRVKLDAKGRAFLDSILLRVLQWLWT”, “DLQRHLLKDHVSQDFKHPMEPLACNWEDCDFLGDDTCSIVNHINCQHGINFDI” is higher in “transcriptional activation domain activity” value: 48200 for the first, 53200 for the second.

Going from “DLQTYVLCLLLLYIARDFVDCLWNLFSTIAILCLVTWVTPMFLIAVFPIGLVY” to “DLSKATKEVKEGGERKAAKGERETEQEKVEEGVKKLAVVDKKGGKNKTETNGS”, the “transcriptional activation domain activity” value falls from 53700 to 17700.

First: DLVFGIIIVRSLLIPVVLVFFFTFACFHIYLSHTSFFPAFYSSILGFHPLAFS
Second: DLYNHSYRLHRRKRPGMKEVYLSAMGFRMMGVKGFREWSFLWRVRLAAAPWWA
The “transcriptional activation domain activity” value of the first is higher: 73300 for the first, 52600 for the second.

Compared with “DMDEEEGGAPAKPVGACARCKNLKVKCEFKTETDPCKRCFNGRHDCVTPGRKK”, “DMKDRGLFQCNPYRYAKECCRFVGLFYTAIWLVLRGTHIGHYVISATCLAVLW” is higher in “transcriptional activation domain activity” value: 28500 for the first, 68200 for the second.

Going from “DMLISFGLDHPSNREDDLDKLCNMTRDVQAIFSQYLKGEESKRSLEDFLSTSN” to “DNAHVLQEYLAVFRHLLSYHDPKLSSHMETIGFMPDLYAIPWFLTLFTHVFPL”, the “transcriptional activation domain activity” value falls from 67500 to 58600.

For “DNAQANAGGARGRRDDGAGTSKEDGEEEGAYEGDSEEDKKKRRKGRSKRRGGD”, the “transcriptional activation domain activity” value was 48100.
